In paper PMC11878559:

Biological target: StbD antitoxin of plasmid pHNSHP45 (p45), untagged (plasmid pHNSHP45 (p45), studied in E. coli)
Experiment: tricine-SDS-PAGE of the purified StbDE complex

## StbD antitoxin of plasmid pHNSHP45 (p45), untagged (natural protein)
  stoichiometry N: 2
